Literature values, collected in article PMC2797979 (Diabetes Care, 2009).

Settings: long-acting insulin analogs

## detemir
  Elimination half-life: 24 h
